According to publication PMC4822050, “Hemi-methylated DNA opens a closed conformation of UHRF1 to facilitate its histone recognition” (Nature Communications, 2016):

T1: TTD (residues 134–285) of UHRF1 (Homo sapiens, UniProt Q96T88)
T1 construct: TTD (residues 134–285); GST (N, cleaved yes); made in house; host or cells: E. coli BL21 (DE3)
T1 sequence (Q96T88 134-285): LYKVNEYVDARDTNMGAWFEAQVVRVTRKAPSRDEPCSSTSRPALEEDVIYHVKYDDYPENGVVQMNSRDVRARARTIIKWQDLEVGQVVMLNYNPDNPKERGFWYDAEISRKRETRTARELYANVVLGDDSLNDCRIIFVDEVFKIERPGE

T2: Spacer (residues 587–674) of UHRF1 (Homo sapiens, UniProt Q96T88)
T2 construct: Spacer (residues 587–674); GST (N, cleaved yes); made in house; host or cells: E. coli BL21 (DE3)
T2 sequence (Q96T88 587-674): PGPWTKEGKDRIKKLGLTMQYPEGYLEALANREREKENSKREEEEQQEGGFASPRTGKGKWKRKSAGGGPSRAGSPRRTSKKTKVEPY


Legend:
Assay type in all cases: binding
[1] = biological target: T1, TTD (residues 134–285) of UHRF1; experiment: ITC, TTD titrated into Spacer variants and other UHRF1 fragments; conditions: TTD in syringe; for N: ITC stoichiometry; for ΔH / ΔS: ITC
Description: (§1) For competition ITC experiments: the indicated proteins were pre-incubated with competitive peptide, protein or hm-DNA (at 1:2 molar ratio if not specified) for 10 min followed by ITC measurements as described above. Proteins, DNA and peptides were prepared within ITC buffer containing 10 mM HEPES, pH 8.0, 100 mM NaCl. The data were fitted by software Origin 7.0. All ITC results were summarized in Supplementary Table 2 and raw data were shown in Supplementary Fig. 9.

[2] = biological target: T2, Spacer (residues 587–674) of UHRF1; experiment: ITC, interaction of UHRF1 domains with the Spacer; conditions: for N: ITC stoichiometry
Description: as §1

[3] = biological target: FAM-12bp-HM-DNA; experiment: Fluorescence polarization, 12-bp FAM-hm-DNA; conditions: FP, 25 °C, 20 min; 20 mM HEPES pH 7.5, 175 mM NaCl, 8% glycerol, 1 mM DTT; triplicate; Fig. 5b and Supplementary Table 4
Description: A 6-carboxy-fluorescein (FAM)-labelled primer, 5′-CCATGCGCTGAC-3′, was annealed to a primer 5′-GTCAGXGCATGG-3′ (X=5-methyldeoxycytosine). The hemi-methylated double-strand DNA was used in both electrophoretic mobility-shift assay and FP assays. […] The samples were subjected to a 10% polyacrylamide gel electrophoresis and run in 0.5 × Tris-borate-EDTA buffer at 100 V for 1 h at 4 °C. The results were visualized on Tanon-5200 Chemiluminescent Imaging System (Tanon Science & Technology Co., Ltd).
FP measurements were performed at 25 °C on Synergy 4 Microplate Reader (BioTek). The 16-bp and 20-bp FAM-labelled hm-DNA (lower strand: 5′-GTGTCAGXGCATGGCC-3′ and 5′-CCGTGTCAGXGCATGGCCAT-3′, respectively. X=5-methyldeoxycytosine) were used in the FP experiment to test the effect of DNA length on the protein/DNA interaction. All experiments were performed in triplicate. The curves were fitted by GraphPad Prism 5. For salt concentration-dependent FP experiments, the reaction buffer contains 50 mM or 150 mM NaCl, respectively.

[4] = ITC, 18 °C, Spacer in syringe, named protein in cell, 10 mM HEPES pH 8.0, 100 mM NaCl
[5] = ITC, Fig. 3e, wild-type or mutant TTD in syringe, Spacer in cell

Row | N [1] | ΔH [1] | ΔS [1] [cal/mol/deg] | Molecule | also measured
1 | 0.891±0.0733 | -3.833 ± 0.4259 kcal/mol | 9.58 | Spacer ∆642-651: internal deletion of the Spacer, residues 642–651 (protein, left off: GST, end not stated, cleaved) PGPWTKEGKDRIKKLGLTMQYPEGYLEALANREREKENSKREEEEQQEGGFASPRAGGGPSRAGSPRRTSKKTKVEPY | –
2 | – | – | – | TTD: tandem Tudor domain of human UHRF1 (residues 134–285) (protein, UniProt Q96T88 134-285, looked up, fragment, tandem Tudor domain) LYKVNEYVDARDTNMGAWFEAQVVRVTRKAPSRDEPCSSTSRPALEEDVIYHVKYDDYPENGVVQMNSRDVRARARTIIKWQDLEVGQVVMLNYNPDNPKERGFWYDAEISRKRETRTARELYANVVLGDDSLNDCRIIFVDEVFKIERPGE | N ([2]; Spacer in syringe): 0.991±0.0134; Kd [2, 4]: 1480 nM; Kd [2, 5]: 1590 nM; ΔH ([2]; ITC, Spacer in syringe): -1.614E4±297.4 cal/mol; ΔS ([2]; ITC, Spacer in syringe): -28.7 cal/mol/deg; interaction between the Spacer and the named protein in the presence of H3K9me3 ([2]; ITC, molar ratio of TTD-PHD or TTD: H3K9me3=1:2): No detectable interaction
3 | – | – | – | TTDD142A,E153A: mutation D142A/E153A of the TTD (protein, left off: GST, end not stated, cleaved, mutation D142A/E153A of the TTD) LYKVNEYVAARDTNMGAWFAAQVVRVTRKAPSRDEPCSSTSRPALEEDVIYHVKYDDYPENGVVQMNSRDVRARARTIIKWQDLEVGQVVMLNYNPDNPKERGFWYDAEISRKRETRTARELYANVVLGDDSLNDCRIIFVDEVFKIERPGE | KD [2, 5]: abolished
4 | 1.06±0.00978 | – | -12.9 | Spacer∆665-669: internal deletion of the Spacer, residues 665–669 (protein, left off: GST, end not stated, cleaved) PGPWTKEGKDRIKKLGLTMQYPEGYLEALANREREKENSKREEEEQQEGGFASPRTGKGKWKRKSAGGGPSRAGSPRRKVEPY | –
5 | 1.1±0.0102 | – | -9.46 | Spacer∆670-674: deletion of the Spacer, residues 670–674 (protein, left off: GST, end not stated, cleaved) PGPWTKEGKDRIKKLGLTMQYPEGYLEALANREREKENSKREEEEQQEGGFASPRTGKGKWKRKSAGGGPSRAGSPRRTSKKT | –
6 | 0.659±0.0209 | -8.45 ± 0.3659 kcal/mol | -5.07 | SpacerK648D: mutation K648D of the Spacer (protein, left off: GST, end not stated, cleaved, mutation K648D of the Spacer) PGPWTKEGKDRIKKLGLTMQYPEGYLEALANREREKENSKREEEEQQEGGFASPRTGKGKWDRKSAGGGPSRAGSPRRTSKKTKVEPY | –
7 | 1.08±0.0104 | -1.219E4±159.8 cal/mol | -14.9 | SpacerS666D: mutation S666D of the Spacer, negative control (protein, left off: GST, end not stated, cleaved, mutation S666D of the Spacer, negative control) PGPWTKEGKDRIKKLGLTMQYPEGYLEALANREREKENSKREEEEQQEGGFASPRTGKGKWKRKSAGGGPSRAGSPRRTDKKTKVEPY | –
8 | 1.06±0.0256 | -8.277 ± 0.352 kcal/mol | -7.04 | SpacerR649A: mutation R649A of the Spacer (protein, left off: GST, end not stated, cleaved, mutation R649A of the Spacer) PGPWTKEGKDRIKKLGLTMQYPEGYLEALANREREKENSKREEEEQQEGGFASPRTGKGKWKAKSAGGGPSRAGSPRRTSKKTKVEPY | –
9 | 1.03±0.0102 | -1.125E4±153.8 cal/mol | -11.4 | SpacerS639D: mutation S639D of the Spacer, negative control (protein, left off: GST, end not stated, cleaved, mutation S639D of the Spacer, negative control) PGPWTKEGKDRIKKLGLTMQYPEGYLEALANREREKENSKREEEEQQEGGFADPRTGKGKWKRKSAGGGPSRAGSPRRTSKKTKVEPY | –
10 | 0.998±0.0189 | – | -19.3 | SpacerS651D: mutation S651D of the Spacer (protein, left off: GST, end not stated, cleaved, mutation S651D of the Spacer) PGPWTKEGKDRIKKLGLTMQYPEGYLEALANREREKENSKREEEEQQEGGFASPRTGKGKWKRKDAGGGPSRAGSPRRTSKKTKVEPY | –
11 | – | – | – | TTD-PHDRR295,296DD: mutation R295D/R296D (within the Linker) of TTD–PHD (protein, left off: GST, end not stated, cleaved, mutation R295D/R296D (within the Linker) of TTD–PHD) LYKVNEYVDARDTNMGAWFEAQVVRVTRKAPSRDEPCSSTSRPALEEDVIYHVKYDDYPENGVVQMNSRDVRARARTIIKWQDLEVGQVVMLNYNPDNPKERGFWYDAEISRKRETRTARELYANVVLGDDSLNDCRIIFVDEVFKIERPGEGSPMVDNPMDDKSGPSCKHCKDDVNRLCRVCACHLCGGRQDPDKQLMCDECDMAFHIYCLDPPLSSVPSEDEWYCPECRND | N ([2]; Spacer in syringe): 0.944±0.0158; Kd [2, 4]: 2690 nM; ΔH ([2]; ITC, Spacer in syringe): -1.399E4±290.7 cal/mol; ΔS ([2]; ITC, Spacer in syringe): -22.5 cal/mol/deg
12 | 0.967±0.0122 | -6.475 ± 0.1071 kcal/mol | 2.57 | Spacer∆650-654: internal deletion of the Spacer, residues 650–654 (protein, left off: GST, end not stated, cleaved) PGPWTKEGKDRIKKLGLTMQYPEGYLEALANREREKENSKREEEEQQEGGFASPRTGKGKWKRGPSRAGSPRRTSKKTKVEPY | –
13 | 1.01±0.00976 | – | -10.2 | Spacer∆660-664: internal deletion of the Spacer, residues 660–664 (protein, left off: GST, end not stated, cleaved) PGPWTKEGKDRIKKLGLTMQYPEGYLEALANREREKENSKREEEEQQEGGFASPRTGKGKWKRKSAGGGPSRATSKKTKVEPY | –
14 | 0.988±0.0147 | -7.634 ± 0.1561 kcal/mol | -0.906 | Spacer∆655-659: internal deletion of the Spacer, residues 655–659 (protein, left off: GST, end not stated, cleaved) PGPWTKEGKDRIKKLGLTMQYPEGYLEALANREREKENSKREEEEQQEGGFASPRTGKGKWKRKSAGGGSPRRTSKKTKVEPY | –
15 | – | – | – | SRA-Spacer-661: UHRF1 residues 414–661 (protein, UniProt Q96T88 414-661, looked up, fragment) PSNHYGPIPGIPVGTMWRFRVQVSESGVHRPHVAGIHGRSNDGAYSLVLAGGYEDDVDHGNFFTYTGSGGRDLSGNKRTAEQSCDQKLTNTNRALALNCFAPINDQEGAEAKDWRSGKPVRVVRNVKGGKNSKYAPAEGNRYDGIYKVVKYWPEKGKSGFLVWRYLLRRDDDEPGPWTKEGKDRIKKLGLTMQYPEGYLEALANREREKENSKREEEEQQEGGFASPRTGKGKWKRKSAGGGPSRAGS | Kd [3]: 380 ± 60 nM
